Experiment [1] deals with HLA-C01:02 (C1) on 721.221 cells (human | human (endogenous in 721.221)).
Experiment [2] addresses HLA-C07:01 (C1) on 721.221 cells (human | human (endogenous in 721.221)).

“KIR2DL2 reporter (2DL2–2DS1TM chimeric molecule, KIR2DL2*001) (receptor)” yielded a GFP-positive NFAT-GFP reporter cells after overnight coculture with 721.221 transfectants (E:T 1:3) (% GFP-positive cells) in experiment [1] of less than 5. Moreover, in experiment [2], the GFP-positive NFAT-GFP reporter cells after overnight coculture with 721.221 transfectants (E:T 1:3) was greater than 20 % GFP cells.

For the origin of these results see publication PMC5372792.
